US20080194611

Target: S1P3 receptor (UniProt Q99500)
Sequence (Q99500 whole entry): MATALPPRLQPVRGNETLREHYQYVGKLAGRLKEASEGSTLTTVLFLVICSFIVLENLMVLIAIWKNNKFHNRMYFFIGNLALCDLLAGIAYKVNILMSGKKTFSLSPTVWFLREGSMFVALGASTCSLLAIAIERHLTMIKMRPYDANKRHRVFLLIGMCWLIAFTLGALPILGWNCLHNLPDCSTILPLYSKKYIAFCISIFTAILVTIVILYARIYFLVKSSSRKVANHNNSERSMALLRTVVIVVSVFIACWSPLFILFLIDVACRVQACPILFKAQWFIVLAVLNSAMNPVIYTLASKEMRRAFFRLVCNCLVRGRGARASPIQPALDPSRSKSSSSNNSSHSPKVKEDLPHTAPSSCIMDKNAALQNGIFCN

With recombinant active Src the “in vitro tyrosine phosphorylation of isolated S1P3 receptor (immunoblot)” value was “Src tyrosine phosphorylation of the S1P3 receptor”.
